Experimental data as given in patent US20160326219A1, “OPTICALLY ACTIVATED RECEPTORS” (IST AUSTRIA (INSTITUTE OF SCIENCE AND TECHNOLOGY AUSTRIA), priority 2013, published 2016).

Legend:
[1] = test system: MAPK pathway; assay: Stimulation and detection of MAPK signaling, PathDetect Elk1 luciferase reporter (HEK293 cells); type: cell-based, human
Experimental: For light stimulation of cells, an incubator (PT2499, ExoTerra/HAGEN, Holm, Germany) was equipped with 300 light emitting diodes (JS-FS505ORGB-W30 with JS-CON-004 controller, Komerci, Ebern, Germany; λmax˜630 nm (red), λmax˜530 nm (green), λmax˜470 nm (blue), bandwidth ˜±5 nm). Light intensity was controlled with an analog dimmer and measured with a digital power meter (PM120VA, Thorlabs, Munich, Germany). Intensities at maximal output were 2.3 (red), 2.6 (green) and 3.3 (blue light) W/m^2. For stimulation over extended time periods (>8 h), an aluminium box was equipped with the same light-emitting diodes and controller and placed in an incubator with standard tissue culture conditions (see below).
HEK293 cells and CHO-K1 (American Type Culture Collection (ATCC), Manassas, Va.) cells were maintained in DMEM supplemented with 10% FBS, 100 U/ml penicilin and 0.1 mg/ml streptomycin in a humidified incubator with 5% CO2 atmosphere. After trypsination, 5×10^4 cells were seeded in each well of 96-well plates (three to four wells for each construct) coated with poly-L-ornithine (Sigma, Vienna, Austria). Either transparent plates or black clear bottom plates were used. Cells were transfected using Lipofectamine 2000 (Invitrogen/LifeTech).
Phycocyanobilin (PCB; Livchem Logistics GmbH, Frankfurt a.M., Germany) was dissolved in a dark room to a stock concentration of 10 mM in DMSO. Aliquots were stored in the dark at −20° C. Prior to experiments, cells were incubated with 50 μM PCB overnight in reduced serum starve medium at 37° C. PCB could also be applied to applied to living animals as it is non-toxic even in high doses (0.17% of diet or 10 mg/kg) (McCarty (2007).
Activation of the MAPK pathway was assayed with the PathDetect Elk1 trans-Reporting System (Agilent) consisting of an Elk1 phosphorylation-dependent trans-activator and a luciferase-based trans-reporter. Cells were transfected with 213.3 ng total DNA per well (receptor, trans-activator and trans-reporter at ratio of 1:3:60 or 1:30:600) using Lipofectamine 2000. Six h after transfection medium was replaced with CO2-independent reduced serum starve medium (Gibco/Life Technologies; supplemented with 0.5% FBS, 2 mM L-Glutamine, 100 U/ml penicilin and 0.1 mg/ml streptomycin) for 18 h at 37° C. Cells were transferred and were either kept under constant illumination for 8 h or were protected from light. Chemical stimulation of imFGFR1 followed the same procedure, except that 10 nM AP20187 ((Clackson 1998); ARIAD Pharmaceuticals, Cambridge, Mass.) were added before transfer to the stimulation incubator. After incubation, plates were washed once with PBS and luciferase was detected with standard, off-the-shelf reagents. These were either Luciferase 1000 Assay System (Promega, Mannheim, Germany) in combination with a microplate reader equipped with an injector (Tecan Infinite 200 Pro, Maennedorf, Switzerland), or ONE-Glo Assay System (Promega) in combination with a microplate reader not equipped with an injector (BioTek Synergy H1). These assay systems provide equivalent results.

[2] = test system: hBE cells; assay: In vitro angiogenesis (sprouting) assay (hBE cells); type: cell-based; details: hBE cell spheroids, FIGS. 7b and c
Experimental: For spheroid generation, hBE cells were suspended as hanging drops (450 cells in a 25 μl drop) in M199 medium (Sigma) supplemented with 10% FBS, L-glutamine, 2.2 g/I NaHCO3 and 20% methylcellulose (Sigma) over night in a standard tissue culture incubator. The following day, spheroids were washed in PBS containing 10% FBS, centrifuged, resuspended in Methocel/20% FBS, mixed (1:1) with neutralized rat-tail collagen and seeded into non-adhesive 24-well plates (Greiner Bio-one, Kremsmünster, Austria). After solidification of the collagen, VEGFA (30 ng/ml) or PD166866 (10 μM) were added. Plates were stimulated with light for 5 min every 20 min for 10 h or kept in the dark. After stimulation, 1 ml of 8% paraformaldehyde was added to each well and spheroids were photographed on the Nikon microscope. Cumulative sprout lengths per sphere from at least 8 spheroids per group were measured (ImageJ).

[3] = test system: SPC212 cells; assay: Stimulation and Western blot (SPC212 cells); type: cell-based, human; details: ~3 μW/mm^2
Description: M38K and SPC212, two malignant pleural mesothelioma cell lines, were maintained in RPMI1640 supplemented with 10% FBS. Telomerase-immortalized microvascular hBE cells were maintained in Clonetics EGM2 MV endothelial growth medium (Lonza, Wakersville, Md.) supplemented with 5% FBS. For retrovirus generation, Opto-mFGFR1 or mCherry as control was subcloned into pQCXIP (Clontech, Mountain View, Calif.) using EcoRI and NotI restriction enzymes. Viral particles were generated in HEK293 cells by co-transfection with the helper plasmids pVSV-G and p-gag-pol-gpt. Supernatants were used to transduce M38K, SPC212 or hBE cells grown to 50% confluency in 6-well plates. Cells were selected with 0.8 μg/ml puromycin for 10 d and transgene expression was verified by immunoblotting.
For immunoblotting, 5×10^5 cells were seeded in each well of 6-well plates. After 24 h, medium was replaced with reduced serum medium (M38K, SPC212). After additional 20 h, cells were transferred to the stimulation incubator and illuminated for 1, 5 or 15 min or shielded from light. Cells were then either immediately or after additional 5, 15 or 30 min in the dark washed and lysed in 50 μl lysis buffer per well on ice. Lysates were sonicated and centrifuged (12000 g, 5 min, 4° C.). […] Chemiluminescence was developed with WesternC reagent (Biorad, Hercules, Calif.) and signals recorded on X-ray film (GE Healthcare).

B1: Opto-mFGFR1: chimeric receptor of mFGFR1 intracellular domain and VfAU1-LOV, SEQ ID NO: 58 (protein)
chain: MGSSKSKPKDPSQRLDMKSGTKKSDFHSQMAVHKLAKSIPLRRQVTVSADSSASMNSGVLLVRPSRLSSSGTPMLAGVSEYELPEDPRWELPRDRLVLGKPLGEGCFGQVVLAEAIGLDKDKPNRVTKVAVKMLKSDATEKDLSDLISEMEMMKMIGKHKNIINLLGACTQDGPLYVIVEYASKGNLREYLQARRPPGLEYCYNPSHNPEEQLSSKDLVSCAYQVARGMEYLASKKCIHRDLAARNVLVTEDNVMKIADFGLARDIHHIDYYKKTTNGRLPVKWMAPEALFDRIYTHQSDVWSFGVLLWEIFTLGGSPYPGVPVEELFKLLKEGHRMDKPSNCTNELYMMMRDCWHAVPSQRPTFKQLVEDLDRIVALTSNQEYLDLSIPLDQYSPSFPDTRSSTCSSGEDSVFSHEPLPEEPCLPRHPTQLANSGLKRRVETGPDYSLVKALQMAQQNFVITDASLPDNPIVYASRGFLTLTGYSLDQILGRNCRFLQGPETDPRAVDKIRNAITKGVDTSVCLLNYRQDGTTFWNLFFVAGLRDSKGNIVNYVGVQSKVSEDYAKLLVNEQNIEYKGVRTSNMLRRKTGGSGVDYPYDVPDYALD
modifications: mFGFR1-VfAU1-LOV
In the case of B1, the “MAPK pathway activation in response to blue light” value ([1]; HEK293 cells expressing the fusion protein (LOV domain fused to RTK intracellular domain), ~3 μW/mm^2) is reported as “activated the MAPK pathway similarly to imFGFR1”, the “MAPK pathway activation in response to green light or red light” value ([1]; HEK293 cells, control experiment) is reported as “no effect” and the “Activation by blue light after reducing the lifetime of VfAU1-LOV ~8-fold by mutation” value ([1]; I472V, HEK293 cells, FIG. 5c) is reported as “reduces Opto-mFGFR1 activation”. The “MAPK pathway activation in response to blue light after loss of kinase activity” value ([1]; kinase dead (Y271F, Y272F), HEK293 cells) was “no effect”, the “Blue light intensity at which activated” value ([1]; low intensity blue light) was ~3 μW/mm^2 and the “Morphological alterations (sprouting) upon blue light illumination” value [2] was “induced morphological alterations”. The “Phosphorylation upon blue light stimulation” value [3] was “rapid phosphorylation of Opto-mFGFR1 and ERK1/2 as well as AKT and phospholipase Cy (PLCy)”.
